Laboratory results taken from patent US20200069775A1, “BRAIN OSTEOCALCIN RECEPTOR AND COGNITIVE DISORDERS” (The Trustees of Columbia University in the City of New York, priority 2017, published 2020).

Assay: Ex vivo dual perfusion of the mouse placenta (maternal-fetal transport)
Type: in vitro ADME
Protocol: Maternal-fetal transport of osteocalcin was monitored using ex vivo dual perfusion of the mouse placenta (Goeden & Bonnin, 2013, Nature Protocols 8:66-74). Osteocalcin (300 ng/ml) was injected on the maternal side through the uterine artery in placentas obtained from WT mice at E14.5, E15.5, and E18.5 of pregnancy (n=3 independent perfusions per age). Osteocalcin transport through the placenta was analyzed by measuring the concentration of osteocalcin present in fetal eluates obtained through the umbilical vein, each time point (1-9) corresponding to a 10 minute collection period (at 5 μl/min). Collection time points (from 10 to 30 min of perfusion) were obtained during materal fluid infusion; time points 4-6 (from 30 to 60 min of perfusion) were obtained during osteocalcin infusion into the maternal uterine artery, whereas for time points 7-9 (from 60 to 90 min of perfusion, respectively) the maternal uterine artery was infused with maternal fluid alone.
Any influence of maternal osteocalcin on fetal brain development requires that this hormone cross the placenta. This was investigated through an ex vivo dual perfusion system that monitors the transport of substances across the mouse placenta (Bonnin et al., 2011, Nature 472:347-350; Goeden and Bonnin, […], Nature Protocols 8:66-74).

## osteocalcin: Recombinant osteocalcin bacterially produced, cleaved from the GST subunit; completely undercarboxylated at all three sites; full-length mouse osteocalcin (YLGASVPSPDPLEPTREQCELNPACDELSDQYGLKTAYKRIYGITI)
Day 14.5 of gestation, 300 ng/ml through uterine artery
  transport across the placenta: begins to cross the placenta
Day 15.5 or 18.5 of gestation
  transplacental transfer to the fetal circulation: larger transplacental transfer
